Test results taken from patent US12723255B2, “Herbicide tolerance genes and methods of use thereof” (priority 2014, dated 2026).
Changes are numbered by the printed parent chain.

Columns and labels:
[1] = type: biochemical
Procedure: To analyze these engineered proteins for activity in higher temperatures, the in vitro enzyme assay in Example 1 was modified to specify pre-heating all of the assay components to the desired temperature for 5 minutes before combining the components and then maintaining the reaction at the desired temperature for the duration of the reaction. To normalize the assay measurements, quizalofop-P was used as the substrate for the reaction and enzyme activity was normalized based on the 25° C. readings. Using these parameters, the temperature at which the enzyme activity was half of maximum (T1/2) was calculated. The T1/2 for MON-HT55 was calculated to be 29° C., and the T1/2 for wild-type RdpA was calculated to be 38° C. (FIG. 2A).
Enzyme activity over a range of temperatures was analyzed in-depth for MON-HT1, MON-HT2, MON-HT7, and MON-HT8. These assays were conducted as described above. Quizalofop-P or 2,4-D was used as the substrate for these reactions and activity was normalized based on the activity of the wild-type enzyme at 25° C. The activity curves obtained are presented in FIG. 2B (with quizalofop-P as the substrate) and FIG. 2C (with 2,4-D as the substrate). Using quizalofop-P as the substrate, MON-HT55 was the most temperature sensitive, with a T1/2 of 29° C. […] MON-HTI was slightly less temperature sensitive, with a T1/2 about 1° C. higher than the wild-type enzyme.

transgenic maize plants = experiment: trait efficacy field trials with homozygous inbred plants, CTP evaluation; type: in vivo; conditions: crop injury percentage
From the text: To evaluate different chloroplast targeting peptides (CTP), plant transformation vectors were constructed, each comprising a recombinant DNA molecule optimized for monocot expression and encoding MON-HTI (SEQ ID NO: 16), MON-HT2 (SEQ ID NO:20), and MON-HT8 (SEQ ID NO:39), MON-HT9 (SEQ ID NO:42), or MON-HT10 (SEQ ID NO:45). The vectors were created using the same combination of promoter, leader, intron, and 3′-UTR, but with one of three separate CTPs (A, B, or C) or without a CTP operably linked to the protein-coding sequence. The DNA constructs were used to transform immature maize (LH244) embryos using Agrobacterium tumifaciens and standard methods known in the art. Regenerated RO transgenic plantlets were grown in the green house. The R0 plants were selfed to generate R1 homozygous seed. The R0 plants were also used as the male to cross with inbred plants containing maize event MON89034 to generate segregating F1 hybrid seed for trait efficacy field trials.
Separate trait efficacy field trials for quizalofop-P and 2,4-D were conducted at two locations each with the homozygous inbred transgenic plants (R2 or R4 generation). In these field trials, one of two herbicide treatments was used: (1) quizalofop-P (Assure II) at 0.16 lb ai/acre (2×) plus 0.25% v/v non-ionic surfactant (NIS) applied at V4 growth stage followed by the same at V8 growth stage; or (2) 2,4-D amine at 2 lb ae/acre (2×) plus 0.25% v/v non-ionic surfactant (NIS) applied to V4 followed by V8. Injury ratings (crop injury percentage at V4 (CIPV4) or V8 (CIPV8)) were taken 10 to 14 days after the V4 and V8 applications. Error was calculated using LSD (0.05).

[2] = system: mRNA transcribed from the transgene cassette; experiment: Quantigene analysis of transgene mRNA expression in leaf samples; conditions: normalized to maize housekeeping genes, average of eight samples
From the text: Leaf samples were collected from the plants containing transgene cassettes encoding MON-HT1, MON-HT2, and MON-HT8 with and without CTP sequences to determine expression of the mRNA transcribed from the transgene cassette encoding the engineered proteins. Quantigene® analysis was done on the leaf sample extracts to determine mRNA expression of the transgene cassette. For these assays, the probe was to the common 3′-UTR sequence present in each expression cassette used to generate the transgenic plants. Relative expression was calculated by normalizing to maize housekeeping genes. A leaf sample was collected from each of eight plants for each construct configuration used to make the transgenic plants, and the reported relative mRNA expression data is an average of the eight samples with standard error.

F1 hybrid maize plants = experiment: trait efficacy field trial, 2,4-D pressure screening, F1 hybrid; type: in vivo; conditions: crop injury percentage; for 4X 2,4-D CIPV4 / 4X 2,4-D CIPV8: 4 lb ae/acre at VE-V2, V4, V8; for 8X 2,4-D CIPV4 / 8X 2,4-D CIPV8: 8 lb ae/acre at VE-V2, V4, V8; for 16X 2,4-D CIPV4 / 16X 2,4-D CIPV8: 16 lb ae/acre at VE-V2, V4, V8
Procedure: Separate trait efficacy field trials for quizalofop-P and 2,4-D pressure screening were conducted at one location each with F1 hybrid transgenic plants produced by crossing an inbred plant containing maize event MON89034 with an R1 plant containing MON-HT1, MON-HT2, MON-HT8, MON-HT9, and MON-HT10 with and without operably linked CTP sequences. Transgenic F1 hybrid plants containing maize events NK603×MON89034 were used for comparison as a control.
Three herbicide treatments were used in the trait efficacy field trial for 2,4-D tolerance: (1) 2,4-D amine at 4 lb ac/acre (4×) plus 0.25% v/v NIS applied to VE-V2 followed by V4 followed by V8; (2) 2,4-D amine at 8 lb ac/acre (8×) plus 0.25% v/v NIS applied to VE-V2 followed by V4followed by V8 maize; or (3) 2,4-D amine at 16 lb ac/acre (16×) plus 0.25% v/v NIS applied to VE-V2 followed by V4 followed by V8. Plots were visually rated as above.
The injury rating for the control plants after all 2,4-D applications ranged from 80% to 96.25%. At the highest rate of 2,4-D (16×) applied through V8, the plants containing MON-HT1 or MON-HT2 operably linked to any of the three CTPs (A, B, or C) had better tolerance than plants containing MON-HT1 or MON-HT2 not operably linked to a CTP. Plants containing MON-HT1, MON-HT2, or MON-HT8 with or without an operably linked CTP had better tolerance to 2,4-D at all applications tested compared to plants containing either MON-HT9 or MON-HT10 with an operably linked ‘A’ CTP. Over the range of 2,4-D applications the relative ranking of tolerance was: plants containing MON-HT1 had better tolerance than plants containing MON-HT2 which were in turn better than plants containing MON-HT8. […] Error was calculated using LSD (0.05).

[3] = CTP A, 0.16 lb ai/acre at V4, V8, LSD (0.05) = 1.45
[4] = CTP A, 0.16 lb ai/acre at V4, V8, LSD (0.05) = 2.2
[5] = CTP A, 2 lb ae/acre at V4, V8, LSD (0.05) = 0.95
[6] = CTP A, 2 lb ae/acre at V4, V8, LSD (0.05) = 1.6
[7] = CTP B, 0.16 lb ai/acre at V4, V8
[8] = CTP C, 0.16 lb ai/acre at V4, V8
[9] = no CTP, 0.16 lb ai/acre at V4, V8

B1: MON-HT7: engineered oxygenase protein, amino acid sequence SEQ ID NO:34 (protein)
chain: MHAALTPLTNKYRFIDVQPLTGVLGAEITGVDLREPLDDSTWNEILDAFHTYQVIYFPGQAITNEQHIAFSRRFGPVDPVPLLKSIEGYPEVQMIRREANESGRVIGDDWHADSTFLDAPPAAVVMRAIEVPEYGGDTGFLSMYSAWETLSPTMQATIEGLNVVHSATKVFGSLYQATNWRFSNTSVKVMDVDAGDRETVHPLVVTHPVTGRRALYCNQVYCQKIQGMTDAESKSLLQFLYEHATKFDFTCRVRWKKDQVLVWDNLCTMHRSVPDYAGKFRYLTRTTVAGDKPSR
T1/2, temperature at which the enzyme activity was half of maximum [1]: 47 °C
temperature sensitivity compared with the wild-type enzyme ([1]; substrate 2,4-D, lower T1/2 than wild-type): slightly more temperature sensitive

B2: MON-HT1: engineered oxygenase protein, amino acid sequence SEQ ID NO:14 (protein)
chain: B1 chain with L82I, G103S, V105F, A112T, S272A
T1/2, temperature at which the enzyme activity was half of maximum [1]: 42 °C
T1/2 higher than the wild-type enzyme [1]: about 1 °C
2X Quizalofop-P CIPV4 (transgenic maize plants; [3]): 0
2X Quizalofop-P CIPV8 (transgenic maize plants; [4]): 2.125
2X 2,4-D CIPV4 (transgenic maize plants; [5]): 0
2X 2,4-D CIPV8 (transgenic maize plants; [6]): 2.5
2X Quizalofop-P CIPV4 (transgenic maize plants; [7]): 0
2X Quizalofop-P CIPV8 (transgenic maize plants; [7]): 1.75
2X 2,4-D CIPV4 (transgenic maize plants; CTP B, 2 lb ae/acre at V4, V8): 0
2X 2,4-D CIPV8 (transgenic maize plants; CTP B, 2 lb ae/acre at V4, V8): 1.25
2X Quizalofop-P CIPV4 (transgenic maize plants; [8]): 0
2X Quizalofop-P CIPV8 (transgenic maize plants; [8]): 1.75
2X 2,4-D CIPV4 (transgenic maize plants; CTP C, 2 lb ae/acre at V4, V8): 1.25
2X 2,4-D CIPV8 (transgenic maize plants; CTP C, 2 lb ae/acre at V4, V8): 1.25
2X Quizalofop-P CIPV4 (transgenic maize plants; [9]): 0
2X Quizalofop-P CIPV8 (transgenic maize plants; [9]): 1.25
2X 2,4-D CIPV4 (transgenic maize plants; no CTP, 2 lb ae/acre at V4, V8): 0
2X 2,4-D CIPV8 (transgenic maize plants; no CTP, 2 lb ae/acre at V4, V8): 1.25
Relative Expression ([2]; CTP A): 7.80
Relative Expression ([2]; CTP B): 5.95
Relative Expression ([2]; CTP C): 3.82
Relative Expression ([2]; no CTP): 4.31
4X 2,4-D CIPV4 (F1 hybrid maize plants; CTP A): 5
4X 2,4-D CIPV8 (F1 hybrid maize plants; CTP A): 5
8X 2,4-D CIPV4 (F1 hybrid maize plants; CTP A): 5
8X 2,4-D CIPV8 (F1 hybrid maize plants; CTP A): 10
16X 2,4-D CIPV4 (F1 hybrid maize plants; CTP A): 7.5
16X 2,4-D CIPV8 (F1 hybrid maize plants; CTP A): 15
4X 2,4-D CIPV4 (F1 hybrid maize plants; CTP B): 5
4X 2,4-D CIPV8 (F1 hybrid maize plants; CTP B): 5
8X 2,4-D CIPV4 (F1 hybrid maize plants; CTP B): 5
8X 2,4-D CIPV8 (F1 hybrid maize plants; CTP B): 10
16X 2,4-D CIPV4 (F1 hybrid maize plants; CTP B): 10
16X 2,4-D CIPV8 (F1 hybrid maize plants; CTP B): 15
4X 2,4-D CIPV4 (F1 hybrid maize plants; CTP C): 5
4X 2,4-D CIPV8 (F1 hybrid maize plants; CTP C): 5
8X 2,4-D CIPV4 (F1 hybrid maize plants; CTP C): 5
8X 2,4-D CIPV8 (F1 hybrid maize plants; CTP C): 10
16X 2,4-D CIPV4 (F1 hybrid maize plants; CTP C): 10
16X 2,4-D CIPV8 (F1 hybrid maize plants; CTP C): 17.5
4X 2,4-D CIPV4 (F1 hybrid maize plants; no CTP): 5
4X 2,4-D CIPV8 (F1 hybrid maize plants; no CTP): 5
8X 2,4-D CIPV4 (F1 hybrid maize plants; no CTP): 7.5
8X 2,4-D CIPV8 (F1 hybrid maize plants; no CTP): 10
16X 2,4-D CIPV4 (F1 hybrid maize plants; no CTP): 10
16X 2,4-D CIPV8 (F1 hybrid maize plants; no CTP): 22.5

B3: MON-HT9: engineered oxygenase protein, amino acid sequence SEQ ID NO:40 (protein)
chain: MHAALTPLTNKYRFIDVQPLTGVLGAEITGVDLREPLDDSTWNEILDAFHTYQVIYFPAQQITNEQHISFSRRFGPVDPVPLLKSIEGYPEVQMIRREANESGRILGDDWHTDSTFLDAPPAAVVMRAIEVPEYGGDTGFLSMYSAWDTLSDTMKATIEGLNVVHSATRVFGSLYQAQNWRFSNTSVKVMDVDAGDRETVHPLVVSHPVTGRRALYCNQVYCQRIEGMTDAESKCLLQFLYEHATKFDFTCRVRWKKDQVLVWDNLCTMHRAVPDYAGKFRYLTRTTVAGDRPAR
2X Quizalofop-P CIPV4 (transgenic maize plants; [3]): 0
2X Quizalofop-P CIPV8 (transgenic maize plants; [4]): 0
2X 2,4-D CIPV4 (transgenic maize plants; [5]): 3.75
2X 2,4-D CIPV8 (transgenic maize plants; [6]): 1.25
4X 2,4-D CIPV4 (F1 hybrid maize plants; CTP A): 17.5
4X 2,4-D CIPV8 (F1 hybrid maize plants; CTP A): 55
8X 2,4-D CIPV4 (F1 hybrid maize plants; CTP A): 25
8X 2,4-D CIPV8 (F1 hybrid maize plants; CTP A): 75
16X 2,4-D CIPV4 (F1 hybrid maize plants; CTP A): 45
16X 2,4-D CIPV8 (F1 hybrid maize plants; CTP A): 90

B4: MON-HT10: engineered oxygenase protein, amino acid sequence SEQ ID NO:43 (protein)
chain: B3 chain with T21C, A59G, Q61A, S69A, R271L, A277D, R292K, A294S
2X Quizalofop-P CIPV4 (transgenic maize plants; [3]): 0
2X Quizalofop-P CIPV8 (transgenic maize plants; [4]): 0
2X 2,4-D CIPV4 (transgenic maize plants; [5]): 0
2X 2,4-D CIPV8 (transgenic maize plants; [6]): 1.25
4X 2,4-D CIPV4 (F1 hybrid maize plants; CTP A): 32.5
4X 2,4-D CIPV8 (F1 hybrid maize plants; CTP A): 70
8X 2,4-D CIPV4 (F1 hybrid maize plants; CTP A): 55
8X 2,4-D CIPV8 (F1 hybrid maize plants; CTP A): 87.5
16X 2,4-D CIPV4 (F1 hybrid maize plants; CTP A): 45
16X 2,4-D CIPV8 (F1 hybrid maize plants; CTP A): 90

B5: MON-HT55: engineered oxygenase protein, amino acid sequence SEQ ID NO:11 (protein)
chain: MHAALSPLSQRFERIAVQPLTGVLGAEITGVDLREPLDDSTWNEILDAFHTYQVIYFPGQAITNEQHIAFSRRFGPVDPVPLLKSIEGYPEVQMIRREANESGRVIGENWHTDSTFLDAPPAAVVMYAKEIPPYGGDTLFTSMYTAWETLSPTMQATIEGLNVVHSATRVFGSLYQAQNRRFSNTSVKVMDVDAGDRETVHPLVVTHPETGRKGLYVNQVYCQRIEGMSEKESEPLLSFLFAHATKPEFTCRVRWQEGDVLVWDNLCTQHYAVPDYAGKFRYLTRTTVGGVRPAR
T1/2, temperature at which the enzyme activity was half of maximum [1]: 29 °C
